Experimental data as given in US20240124585A1 (SUTRO BIOPHARMA, published 2024).
Positions count from the first letter of the chain named. Numbers in names are those of the source.

B1: 2037-B10_Hc-F104D (antibody, human IgG1, lambda, V domains shown)
VH: EVQLVESGGGLVKPGGSLRLSCAASGFTFNKYAMNWVRQAPGKGLEWVARIRTKYNNYATYYADSVKDRFTISRDDSKNTAYLQMNSLKTEDTAVYYCVRHGNDGNSYISYWAYWGQGTPVTVSS
VL: QTVVTQEPSLTVSPGGTVTLTCGSSTGAVTSGYYPNWLQQKPGQAPRGLIGGTKFLAPGTPARFSGSLLGGKAALTLSGVQPEDEAEYYCALWYSNRWVFGGGTQLTVTG
notes: human IgG1, lambda; also called SRP 2037 F104D; 2037-B10_VH-F104D
B2: 2037-B10_Lc-R97D (antibody, V domains shown)
VH: not shown
VL: B1 VL with R97D
notes: human IgG1, lambda; also called SRP 2037 R97D; 2037-B10 VL-R97D
B3: SRP 2037-B10 F104D/R97D (antibody, human IgG1, lambda, V domains shown)
VH: B1 VH
VL: B1 VL with R97D
notes: human IgG1, lambda
B4: SRP 2037-B10 S107D/R97D (antibody, human IgG1, lambda, V domains shown)
VH: B1 VH with D104F, S107D
VL: B1 VL with R97D
notes: human IgG1, lambda
B5: SRP 2037-B10 Y55D/R97D (antibody, human IgG1, lambda, V domains shown)
VH: B1 VH with Y55D, D104F
VL: B1 VL with R97D
notes: human IgG1, lambda
B6: SRP 2037-B10 Y61D/R97D (antibody, human IgG1, lambda, V domains shown)
VH: B1 VH with Y61D, D104F
VL: B1 VL with R97D
notes: human IgG1, lambda
B7: SRP 2037-B10 F29D/LC6 (antibody, human IgG1, kappa, V domains shown)
VH: B1 VH with F29D, D104F
VL: DIQMTQSPSSLSASVGDRVTITCGSSTGAVTSGYYPNWLQQKPGQAPRGLIGGTKFLAPGVPSRFSGSLSGGKATLTISSLQPEDFATYYCALWYSNRWVFGGGTKVEIKR
notes: human IgG1, kappa
B8: SRP 2037-B10 F104D/LC6 (antibody, human IgG1, kappa, V domains shown)
VH: B1 VH
VL: B7 VL
notes: human IgG1, kappa
B9: SRP 2037-B10 S107D/LC6 (antibody, human IgG1, kappa, V domains shown)
VH: B1 VH with D104F, S107D
VL: B7 VL
notes: human IgG1, kappa; also called 2037-B10 IgG S107D Lc6
B10: SRP 2037-B10 Y55D/LC6 (antibody, human IgG1, kappa, V domains shown)
VH: B1 VH with Y55D, D104F
VL: B7 VL
notes: human IgG1, kappa
B11: SRP 2037-B10 Y61D/LC6 (antibody, human IgG1, kappa, V domains shown)
VH: B1 VH with Y61D, D104F
VL: B7 VL
notes: human IgG1, kappa
B12: SRP 2037-B10 F104D/LC5 (antibody, human IgG1, kappa, V domains shown)
VH: B1 VH
VL: DTQVTQSPSLSASVGDRVTITCGSSTGAVTSGYYPNWLQQKPGQAPRGLIGGTKFLAPGVPSRFSGSGSGTDFTLTISSLQPEDFATYYCALWYSNRWVFGGGTKVEIKR
notes: human IgG1, kappa
B13: SRP 2037-B10 S107D/LC5 (antibody, human IgG1, kappa, V domains shown)
VH: B1 VH with D104F, S107D
VL: B12 VL
notes: human IgG1, kappa
B14: SRP 2037-B10 Y55D/LC5 (antibody, human IgG1, kappa, V domains shown)
VH: B1 VH with Y55D, D104F
VL: B12 VL
notes: human IgG1, kappa
B15: SRP 2037-B10 Y61D/LC5 (antibody, human IgG1, kappa, V domains shown)
VH: B1 VH with Y61D, D104F
VL: B12 VL
notes: human IgG1, kappa
B16: 2037-B10_Hc-F29D (antibody, human IgG1, lambda, V domains shown)
VH: B1 VH with F29D, D104F
VL: B1 VL
notes: human IgG1, lambda; also called SRP 2037 F29D; 2037-B10_VH-F29D
B17: 2037-B10_Hc-N106D (antibody, human IgG1, lambda, V domains shown)
VH: B1 VH with D104F, N106D
VL: B1 VL
notes: human IgG1, lambda; also called SRP 2037 N106D; 2037-B10_VH-N106D
B18: 2037-B10_Hc-Y108D (antibody, human IgG1, lambda, V domains shown)
VH: B1 VH with D104F, Y108D
VL: B1 VL
notes: human IgG1, lambda; also called 2037-B10_VH-Y108D
B19: 2037-B10_Lc-N96D (antibody, V domains shown)
VH: not shown
VL: B1 VL with N96D
notes: human IgG1, lambda; also called SRP 2037 N96D; 2037-B10 VL-N96D
B20: 2037-B10_Lc-W93D (antibody, V domains shown)
VH: not shown
VL: B1 VL with W93D
notes: human IgG1, lambda; also called SRP 2037 W93D; 2037-B10 VL-W93D

Target: T1, human CD3 on T-cell lines (CD3-expressing Jurkat cells; HUT78 cells) (human, UniProt P07766 23-207)
T1 construct: On cells it stands in the CD3/TCR complex
T1 sequence (P07766 23-207 limits assumed): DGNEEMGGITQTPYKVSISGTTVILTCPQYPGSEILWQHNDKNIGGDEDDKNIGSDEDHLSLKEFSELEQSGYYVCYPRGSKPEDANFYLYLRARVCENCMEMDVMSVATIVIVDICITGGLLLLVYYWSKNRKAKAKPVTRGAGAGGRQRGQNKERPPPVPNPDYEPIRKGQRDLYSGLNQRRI
Test: flow cytometry, HUT78 cells

Point of comparison: B5, “HUT78 Bmax” value 1190. Against it:
- B1 — higher, 1200
- B2 — higher, 2080
- B3 — higher, 2710
- B4 — higher, 1800
- B6 — higher, 2000
- B7 — lower, 1040
- B8 — lower, 760
- B9 — higher, 1550
- B10 — higher, 1250
- B11 — lower, 737
- B12 — lower, 523
- B13 — lower, 404
- B14 — lower, 442
- B15 — lower, 772

Point of comparison: B9, Kd 17.3 nM. Against it:
- B1 — within 1.5-fold, 23 nM
- B2 — 5.9-fold lower, 2.93 nM
- B3 — 7.3-fold higher, 126 nM
- B4 — 2.2-fold higher, 38.1 nM
- B5 — 3.6-fold higher, 62.4 nM
- B6 — 7-fold higher, 121 nM
- B7 — 4.7-fold lower, 3.72 nM
- B8 — within 1.5-fold, 24.6 nM
- B10 — 2.7-fold lower, 6.35 nM
- B11 — 2.6-fold lower, 6.61 nM
- B12 — 13-fold higher, 226 nM
- B13 — 5-fold higher, 86.4 nM
- B14 — 10-fold higher, 174 nM
- B15 — 18-fold higher, 312 nM

Target: T2, cynomolgus CD3 epsilon (cynomolgus monkey, UniProt Q95LI5 22-117, limits assumed)
T2 construct: Recombinant protein; also called cyno CD3E
T2 sequence: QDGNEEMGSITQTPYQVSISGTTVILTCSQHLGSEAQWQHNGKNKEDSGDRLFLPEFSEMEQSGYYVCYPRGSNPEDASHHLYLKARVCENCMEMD
Test: SPR (Biacore), antibody captured, cynomolgus CD3 epsilon analyte

Point of comparison: B11, Kd 3.99 nM. Against it:
- B16 — within 1.5-fold, 2.69 nM
- B1 — 1.6-fold higher, 6.45 nM
- B7 — within 1.5-fold, 5.87 nM
- B8 — 3.7-fold higher, 14.9 nM
- B9 — within 1.5-fold, 3.41 nM
- B10 — 1.9-fold lower, 2.09 nM

Point of comparison: B11, koff 0.00154 s⁻¹. Against it:
- B16 — 2.7-fold lower, 0.000573 s⁻¹
- B1 — within 1.5-fold, 0.00107 s⁻¹
- B7 — within 1.5-fold, 0.00121 s⁻¹
- B8 — within 1.5-fold, 0.00165 s⁻¹
- B9 — 2.8-fold lower, 0.000558 s⁻¹
- B10 — 1.6-fold lower, 0.000945 s⁻¹

Point of comparison: B1, kon 166000 M⁻¹ s⁻¹. Against it:
- B16 — within 1.5-fold, 213000 M⁻¹ s⁻¹
- B7 — within 1.5-fold, 206000 M⁻¹ s⁻¹
- B8 — within 1.5-fold, 111000 M⁻¹ s⁻¹
- B9 — within 1.5-fold, 164000 M⁻¹ s⁻¹
- B10 — 2.7-fold higher, 451000 M⁻¹ s⁻¹
- B11 — 2.3-fold higher, 387000 M⁻¹ s⁻¹

Target: T3, human CD3 epsilon (Acro Cat #CDE-H5223) (human, UniProt P07766 23-126)
T3 construct: Bought recombinant protein; also called rhCD3E
T3 sequence (P07766 23-126 limits assumed): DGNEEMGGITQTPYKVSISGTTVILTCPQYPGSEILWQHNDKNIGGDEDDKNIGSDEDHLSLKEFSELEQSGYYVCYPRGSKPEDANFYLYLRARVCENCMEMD
Test: SPR (Biacore), antibody captured, human CD3 epsilon analyte
Description: (§1) Anti-Fab or anti-Fc polyclonal antibodies were immobilized onto a CM5 chip (GE Life Sciences) using amine coupling chemistry (from Amine Coupling Kit, GE Life Sciences). The immobilization steps were carried out at a flow rate of 25 μl/min in 1×HBS-EP+ buffer (GE Life Sciences; 10× Stock diluted before use). The sensor surfaces were activated for 7 min with a mixture of NHS (0.05 M) and EDC (0.2 M). The Anti-Fab or Anti-Fc antibodies were injected over all 4 flow cells at a concentration of 25 μg/mL in 10 mM sodium acetate, pH 4.5, for 7 min. Ethanolamine (1 M, pH 8.5) was injected for 7 min to block any remaining activated groups.
(§2) Off-rate and kinetic binding experiments were performed at 25° C. using 1×HBS-EP+ buffer. Test and control antibodies were injected over the anti-Fab or anti-Fc surface at concentrations of 5-10 μg/mL for 12 seconds at a flow rate of 10 μL/min on flow cells 2, 3 and 4, followed by a buffer wash for 30 seconds at the same flow rate. […] After capturing ligand (antibody) on the anti-Fc or anti-Fab surface, the analyte (human CD3 epsilon, Acro Cat #CDE-H5223) was bound for 180 seconds, followed by a 600 second dissociation phase at a flow rate of 50 μL/min. Between each ligand capture and analyte binding cycle, regeneration was carried out using two injections of 10 mM Glycine pH 2.0 for 30 seconds at 30 μL/min, followed by a 30 second buffer wash step.
(§3) The data was fit with the Biacore T200 Evaluation software, using a 1-1 Langmuir binding model. KD (affinity, nM) was determined as a ratio of the kinetic rate constants calculated from the fits of the association and dissociation phases.

Point of comparison: B3, Kd 6.99 nM. Against it:
- B16 — 1.6-fold higher, 11 nM
- B1 — 2.1-fold lower, 3.38 nM
- B2 — 4.7-fold lower, 1.49 nM
- B4 — 2.3-fold higher, 15.8 nM
- B5 — within 1.5-fold, 5.07 nM
- B6 — 1.8-fold lower, 3.91 nM
- B7 — 2.6-fold higher, 18.5 nM
- B8 — 1.9-fold lower, 3.7 nM
- B9 — within 1.5-fold, 8.62 nM
- B10 — 1.8-fold lower, 3.89 nM
- B11 — 1.9-fold lower, 3.63 nM

Point of comparison: B8, koff 0.000374 s⁻¹. Against it:
- B16 — within 1.5-fold, 0.000453 s⁻¹
- B1 — 1.6-fold lower, 0.000241 s⁻¹
- B2 — within 1.5-fold, 0.000257 s⁻¹
- B3 — 3.3-fold lower, 0.000115 s⁻¹
- B4 — within 1.5-fold, 0.000474 s⁻¹
- B5 — within 1.5-fold, 0.000441 s⁻¹
- B6 — within 1.5-fold, 0.00029 s⁻¹
- B7 — 2-fold higher, 0.000749 s⁻¹
- B9 — within 1.5-fold, 0.000459 s⁻¹
- B10 — within 1.5-fold, 0.000392 s⁻¹
- B11 — within 1.5-fold, 0.000369 s⁻¹

Point of comparison: B10, kon 101000 M⁻¹ s⁻¹. Against it:
- B16 — 2.5-fold lower, 41200 M⁻¹ s⁻¹
- B1 — within 1.5-fold, 71200 M⁻¹ s⁻¹
- B2 — 1.7-fold higher, 172000 M⁻¹ s⁻¹
- B3 — 6.2-fold lower, 16400 M⁻¹ s⁻¹
- B4 — 3.4-fold lower, 30100 M⁻¹ s⁻¹
- B5 — within 1.5-fold, 87000 M⁻¹ s⁻¹
- B6 — within 1.5-fold, 74000 M⁻¹ s⁻¹
- B7 — 2.5-fold lower, 40500 M⁻¹ s⁻¹
- B8 — the same, 101000 M⁻¹ s⁻¹
- B9 — 1.9-fold lower, 53200 M⁻¹ s⁻¹
- B11 — within 1.5-fold, 102000 M⁻¹ s⁻¹

Target: T1, human CD3 on T-cell lines …
Test: flow cytometry, HUT78 cells
Remark: another data set of the same source

Point of comparison: B16, “Bmax (MFI)” value 1080 MFI. Against it:
- B1 — lower, 617 MFI
- B17 — lower, 1010 MFI
- B18 — lower, 820 MFI
- B19 — higher, 1220 MFI
- B2 — lower, 953 MFI
- B20 — lower, 88 MFI

Point of comparison: B1, Kd 1.72 nM. Against it:
- B16 — within 1.5-fold, 1.87 nM
- B17 — 6.6-fold lower, 0.26 nM
- B18 — 14-fold lower, 0.12 nM
- B19 — 4-fold lower, 0.43 nM
- B2 — 3-fold lower, 0.58 nM
- B20 — 13-fold higher, 21.9 nM

Target: T3, human CD3 epsilon (Acro Cat #CDE-H5223)
Test: SPR (Biacore), antibody captured, human CD3 epsilon analyte
Remark: another data set of the same source
Description: as §1, §2, §3

Point of comparison: B1, Kd 7.82 nM. Against it:
- B16 — 3.3-fold lower, 2.36 nM
- B17 — 9.3-fold lower, 0.841 nM
- B18 — 33-fold lower, 0.239 nM
- B19 — 13-fold lower, 0.596 nM

Point of comparison: B17, koff 0.000277 s⁻¹. Against it:
- B16 — 1.8-fold higher, 0.000491 s⁻¹
- B1 — 2.3-fold higher, 0.000631 s⁻¹
- B18 — within 1.5-fold, 0.00019 s⁻¹
- B19 — within 1.5-fold, 0.000265 s⁻¹

Point of comparison: B16, kon 208000 M⁻¹ s⁻¹. Against it:
- B1 — 2.6-fold lower, 80700 M⁻¹ s⁻¹
- B17 — 1.6-fold higher, 329000 M⁻¹ s⁻¹
- B18 — 3.8-fold higher, 796000 M⁻¹ s⁻¹
- B19 — 2.1-fold higher, 445000 M⁻¹ s⁻¹
- B20 — 27-fold lower, 7720 M⁻¹ s⁻¹
